From patent publication US6670167B1, “Catalytic domain of the human effector cell cycle checkpoint protein kinase materials and methods for identification of inhibitors thereof” (Agouron Pharmaceuticals, Inc., priority 1999, dated 2003)

B1: HB2-061: preparation of the kinase domain of amino acids 1-289 of SEQ ID NO. 2 (KH289) (protein, listed as Homo sapiens)
chain: MAVPFVEDWDLVGTLGEGAYGEVQLAVNRVTEEAVAVKIVDMKRAVDCPENIKKEICINKMLNHENVVKFYGHRREGNIQYLFLEYCSGGELFDRIEPDIGMPEPDAQRFFHQLMAGVVYLHGIGITHRDIKPENLLLDERDNLKISDFGLATVFRYNNRERLLNKMCGTLPYVAPELLKRREFHAEPVDVWSCGIVLTAMLAGELPWDQPSDSCQEYSDWKEKKTYLNPWKKIDSAPLALLHKILVENPSARITIPDIKKDRWYNKPLKKGAKRPRVTSGGVSESPSG
B2: HA2-013: preparation of the full length form of human Chk1, amino acids 1-476 of SEQ ID NO. 2 (protein, listed as Homo sapiens)
chain: MAVPFVEDWDLVGTLGEGAYGEVQLAVNRVTEEAVAVKIVDMKRAVDCPENIKKEICINKMLNHENVVKFYGHRREGNIQYLFLEYCSGGELFDRIEPDIGMPEPDAQRFFHQLMAGVVYLHGIGITHRDIKPENLLLDERDNLKISDFGLATVFRYNNRERLLNKMCGTLPYVAPELLKRREFHAEPVDVWSCGIVLTAMLAGELPWDQPSDSCQEYSDWKEKKTYLNPWKKIDSAPLALLHKILVENPSARITIPDIKKDRWYNKPLKKGAKRPRVTSGGVSESPSGFSKHIQSNLDFSPVNSASSEENVKYSSSQPEPRTGLSLWDTSPSYIDKLVQGISFSQPTCPDHMLLNSGLLGTPGSSQNPWQRLVKRMTRFFTKLDADKSYQCLKETCEKLQYQWKKSCMNQVTISTTDRRNNKLIFKVNLLEMDDKILVDFRLSKGDGLEFKRHFLKIKGKLIDIVSSQKVWLPAT
B3: KH289: human Chk1 kinase domain (AA 1-289), C-terminal 6xHis-tag (protein)
chain: MAVPFVEDWDLVGTLGEGAYGEVQLAVNRVTEEAVAVKIVDMKRAVDCPENIKKEICINKMLNHENVVKFYGHRREGNIQYLFLEYCSGGELFDRIEPDIGMPEPDAQRFFHQLMAGVVYLHGIGITHRDIKPENLLLDERDNLKISDFGLATVFRYNNRERLLNKMCGTLPYVAPELLKRREFHAEPVDVWSCGIVLTAMLAGELPWDQPSDSCQEYSDWKEKKTYLNPWKKIDSAPLALLHKILVENPSARITIPDIKKDRWYNKPLKKGAKRPRVTSGGVSESPSGHHHHHH

Tested on: Chk1
Sequence (O14757 9-265 limits assumed): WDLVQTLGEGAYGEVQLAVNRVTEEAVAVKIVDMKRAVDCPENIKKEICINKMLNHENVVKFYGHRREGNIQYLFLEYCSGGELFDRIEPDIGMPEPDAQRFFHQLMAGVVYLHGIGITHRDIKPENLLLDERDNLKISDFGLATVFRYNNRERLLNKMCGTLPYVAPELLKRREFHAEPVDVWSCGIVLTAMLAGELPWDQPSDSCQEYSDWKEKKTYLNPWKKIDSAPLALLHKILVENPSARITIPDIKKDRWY
Assay: Chk1 kinase activity of enzyme preparations, ADP production coupled through pyruvate kinase and lactate dehydrogenase (Syntide-2 substrate)
Assay type: biochemical, human
Details: for Rate/min: prep concentration 75 nM (HA2-013), 2 nM (HA2-022), 7.3 nM (HB2-061), 0.125 mM Syntide-2, 0.15 mM ATP; for Activity: relative to full length Chk1 (control = 1)
Experimental: The kinase activity of the hChk1 was determined by monitoring the ADP production through enzymatic actions of pyruvate kinase and lactate dehydrogenase. […] Unlike the other forms of Chk1 which have proven difficult to work with (isolate, purify, crystallize, etc), the 1-289 kinase domain form of the human Chk1 enzyme facilitated crystallography, enzyme characterization, and high throughput screening of inhibitors. In particular, the Chk1 kinase domain was used to determine its 3-dimensional structure, which provides unique structural information for inhibitor design for therapeutic development.
The enzymatic activity of a kinase is measured by its ability to catalyze the transfer of a phosphate residue from a nucleoside triphosphate to an amino acid side chain in a selected protein target. The conversion of ATP to ADP generally accompanies the catalytic reaction. Herein, a synthetic substrate peptide, Syntide-2, having amino acid sequence PLARTLSVAGLPGKK (SEQ ID NO. 11) was utilized. The production of ADP from ATP that accompanies phosphoryl transfer to the substrate was coupled to oxidation of NADH using phosphoenolpyruvate (PEP) through the actions of pyruvate kinase (PK) and lactic dehydrogenase (LDH). The oxidation of NADH was monitored by following the decrease of absorbance at 340 nm (e340=6.22 cm−1 mM−1) using a HP8452 spectrophotometer. Typical reaction solutions contained: 4 mM PEP, 0.15 mM NADH, 28 units of LDH/mL, 16 units of PK/mL, 3 mM DTT, 0.125 mM Syntide-2, 0.15 mM ATP and 25 mM MgCl2 in 50 mM TRIS pH 7.5; 400 mM NaCl. Assays were initiated with 10 nM of kinase domain of Chk1, KH289. Ki values were determined by measuring initial enzyme activity in the presence of varying concentrations of inhibitors. The data were analyzed using Enzyme Kinetic and Kaleidagraph software.
The table below (Table 3) compares three different preparations of Chk1. The first preparation is the full length form, which comprises amino acids 1-476 of SEQ ID NO. 2. The next preparation contains proteolytically cleaved fragments, a mixture of Chk1 protein fragments obtained from the full-length protein during fermentation. The exact enzymes involved and cleavage site generated for these fragments is unknown. […] The third preparation is the kinase domain of amino acids 1-289 of SEQ ID NO. 2 (KH289) As mentioned above, the assay used detects the ADP product by coupling through the enzymatic actions of pyruvate kinase and lactate dehydrogenase.

| Molecule | Rate/min | Activity | enzymatic activity compared with the full length protein (ADP production via pyruvate kinase and lactate dehydrogenase) |
| --- | --- | --- | --- |
| B1 | 0.0200 | +10 fold | – |
| B2 | 0.0190 | 1 (control) fold | – |
| B3 | – | – | higher enzymatic activity than the full length protein |
